# B1: hBCMA-A6 (VHH)
# VHH: QVQLVESGGGLVQPGGSLRLSCVASGSIFDAYNMGWYRQAPGKQRELVAAISSAGTTFYRDSVKGRFTVSRNNAKNTMYLQMDRLRPEDTAVYDCNGAPWGDAPVKVEDWGQGTQVTVSS
# modifications: single biotin on the C-terminal AviTag
# notes: also called VHH-A6; not shown: C-terminal His tag and AviTag biotinylation signal from pMRO vector
# B2: hBCMA-VcMRo8(VF7/VF8) (VHH)
# VHH: QVQLVESGGGLVQPGGSLRLSCAASGTIFSRNALAWFRQAPGKQRELVAHITIGGTTVYKDSVKGRFTISRDNAKNTVYLQMDALKPEDTAVYYCNADPEGSWNWVRRGDYWGQGTQVTVS
# modifications: single biotin on the C-terminal AviTag
# notes: also called V8; hBCMA-V8; not shown: C-terminal His tag and AviTag biotinylation signal from pMRO vector
# B3: hBCMA-VcMRo3 (V3) (VHH)
# VHH: EVQLEQSGGGLVQTGDSLRLTCTIPGRASNHFVMAWFRRAPGKEREFVATRVWSGGSPYYSDSVKGRFAIAIDNAKNTAYLQMNSLKPEDTAVYYCAATKDIMSRSYDYWGLGTQVTVSS
# modifications: single biotin on the C-terminal AviTag
# notes: also called hBCMA-V3; not shown: C-terminal His tag and AviTag biotinylation signal from pMRO vector
# Biological target: T1, full-length hBCMA-ECD displayed on yeast (Aga2-HA-(hBCMA)-MYC) (human, UniProt Q02223 1-54)
# T1 construct: range 1-54; stands here as the molecule on which the mapped regions are counted; also called hBCMA ecto-domain (ECD); not shown: Aga2-HA N-terminal fusion partner of the pPNL6 yeast display vector; C-terminal MYC tag
# T1 sequence (looked up): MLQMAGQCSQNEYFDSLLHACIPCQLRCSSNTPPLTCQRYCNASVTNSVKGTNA
# Assay: yeast cell ELISA, sample BCMA_B1x Met1_Ala54
# Procedure: (§1) The YSD vector (pPNL6) was from The Pacific Northwest National Laboratory, USA. […] The HRP activity was assayed with substrate TMB (tetramethyl benzidine) according to the manufacture's conditions and read at OD₄₅₀.
# (§2) The assays were performed as described in the Materials and Method, and OD₄₅₀ was measured. Note that OD₄₅₀ reads equal or less than 0.100 were scored as zero for clarity.
row,Binder,OD450
1,B1,1.88
2,B2,2.45
3,B3,3.09

# Biological target: T2, BCMA_B14x Gly6_Pro23 (C21S) (human, UniProt Q02223)
# T2 construct: limits and substitution as printed in the sample name
# T2 yeast-displayed fusion (looked up): GQCSQNEYFDSLLHASIP
# Assay: yeast cell ELISA, sample BCMA_B14x Gly6_Pro23 (C21S)
# Procedure: as §1, §2
row,Binder,binding result
1,B1,no binding
2,B2,no binding
3,B3,no binding

# Biological target: T3, BCMA_B4x Arg27_Ala54 (human, UniProt Q02223)
# T3 construct: limits given in the sample name
# T3 yeast-displayed fusion (looked up): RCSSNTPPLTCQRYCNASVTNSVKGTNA
# Assay: yeast cell ELISA, sample BCMA_B4x Arg27_Ala54
# Procedure: as §1, §2
row,Binder,binding result
1,B1,no binding
2,B2,no binding
3,B3,no binding

# Biological target: T4, hBCMA fragment Gly6-Tyr40 displayed on yeast (Aga2-HA-(hBCMA)-MYC) (human, UniProt Q02223 6-40)
# T4 construct: range 6-40; not shown: Aga2-HA N-terminal fusion partner of the pPNL6 yeast display vector; C-terminal MYC tag
# T4 chain (looked up): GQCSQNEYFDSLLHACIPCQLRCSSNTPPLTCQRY
# Assay: yeast cell ELISA, sample BCMA_B11x Gly6_Tyr40
# Procedure: as §1, §2
row,Binder,OD450
1,B1,2.44
2,B2,2.61
3,B3,2.74

# Biological target: T5, BCMA_B8x Met1_Pro23 (human, UniProt Q02223)
# T5 construct: limits given in the sample name
# T5 yeast-displayed fusion (looked up): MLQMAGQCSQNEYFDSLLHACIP
# Assay: yeast cell ELISA, sample BCMA_B8x Met1_Pro23
# Procedure: as §1, §2
Binder,binding result,OD450
B1,no binding,
B2,no binding,
B3,,2.09

# Biological target: T6, BCMA_B7x Met1_Tyr40 (human, UniProt Q02223)
# T6 construct: limits given in the sample name
# T6 yeast-displayed fusion (looked up): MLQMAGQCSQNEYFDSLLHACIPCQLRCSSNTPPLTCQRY
# Assay: yeast cell ELISA, sample BCMA_B7x Met1_Tyr40
# Procedure: as §1, §2
row,Binder,OD450
1,B1,1.84
2,B2,2.37
3,B3,1.62

# Biological target: T7, BCMA_B20x Arg27_Ala43 (C41S) (human, UniProt Q02223)
# T7 construct: limits and substitution as printed in the sample name
# T7 yeast-displayed fusion (looked up): RCSSNTPPLTCQRYSNA
# Assay: yeast cell ELISA, sample BCMA_B20x Arg27_Ala43 (C41S)
# Procedure: as §1, §2
row,Binder,binding result
1,B1,no binding
2,B2,no binding
3,B3,no binding

# Biological target: T8, hBCMA fragment Gly6-Pro23 displayed on yeast (Aga2-HA-(hBCMA)-MYC) (human, UniProt Q02223 6-23)
# T8 construct: range 6-23; not shown: Aga2-HA N-terminal fusion partner of the pPNL6 yeast display vector; C-terminal MYC tag
# T8 chain (looked up): GQCSQNEYFDSLLHACIP
# Assay: yeast cell ELISA, sample BCMA_B12x Gly6_Pro23
# Procedure: as §1, §2
Binder,binding result,OD450
B1,no binding,
B2,no binding,
B3,,2.08

# Biological target: T9, BCMA_B6x Met1_Ala43 (human, UniProt Q02223)
# T9 construct: limits given in the sample name
# T9 yeast-displayed fusion (looked up): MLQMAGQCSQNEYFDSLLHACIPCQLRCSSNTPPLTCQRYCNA
# Assay: yeast cell ELISA, sample BCMA_B6x Met1_Ala43
# Procedure: as §1, §2
row,Binder,OD450
1,B1,2.8
2,B2,2.33
3,B3,2.65

# Biological target: T10, BCMA_B16x Ile22_Ala43 (C41S) (human, UniProt Q02223)
# T10 construct: limits and substitution as printed in the sample name
# T10 yeast-displayed fusion (looked up): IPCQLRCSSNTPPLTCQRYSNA
# Assay: yeast cell ELISA, sample BCMA_B16x Ile22_Ala43 (C41S)
# Procedure: as §1, §2
row,Binder,binding result
1,B1,no binding
2,B2,no binding
3,B3,no binding

# Biological target: T11, BCMA_B19x Arg27_Ala43 (human, UniProt Q02223)
# T11 construct: limits given in the sample name
# T11 yeast-displayed fusion (looked up): RCSSNTPPLTCQRYCNA
# Assay: yeast cell ELISA, sample BCMA_B19x Arg27_Ala43
# Procedure: as §1, §2
row,Binder,binding result
1,B1,no binding
2,B2,no binding
3,B3,no binding

# Biological target: T12, BCMA_B18x Ile22_Tyr40 (C37S) (human, UniProt Q02223)
# T12 construct: limits and substitution as printed in the sample name
# T12 yeast-displayed fusion (looked up): IPCQLRCSSNTPPLTSQRY
# Assay: yeast cell ELISA, sample BCMA_B18x Ile22_Tyr40 (C37S)
# Procedure: as §1, §2
row,Binder,binding result
1,B1,no binding
2,B2,no binding
3,B3,no binding

# Biological target: T13, BCMA_B10x Gly6_Ala43 (human, UniProt Q02223)
# T13 construct: limits given in the sample name
# T13 yeast-displayed fusion (looked up): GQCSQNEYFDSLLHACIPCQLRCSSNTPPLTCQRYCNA
# Assay: yeast cell ELISA, sample BCMA_B10x Gly6_Ala43
# Procedure: as §1, §2
row,Binder,OD450
1,B1,1.66
2,B2,2.32
3,B3,2.69

# Biological target: T14, BCMA_B3x Ile22_Ala54 (human, UniProt Q02223)
# T14 construct: limits given in the sample name
# T14 yeast-displayed fusion (looked up): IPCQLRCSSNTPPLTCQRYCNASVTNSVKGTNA
# Assay: yeast cell ELISA, sample BCMA_B3x Ile22_Ala54
# Procedure: as §1, §2
row,Binder,binding result
1,B1,no binding
2,B2,no binding
3,B3,no binding

# Biological target: T15, BCMA_B2x Gly6_Ala54 (human, UniProt Q02223)
# T15 construct: limits given in the sample name
# T15 yeast-displayed fusion (looked up): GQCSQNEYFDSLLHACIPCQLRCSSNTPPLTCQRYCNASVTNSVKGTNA
# Assay: yeast cell ELISA, sample BCMA_B2x Gly6_Ala54
# Procedure: as §1, §2
row,Binder,OD450
1,B1,3.08
2,B2,2.74
3,B3,2.53

# Biological target: T16, BCMA_B15x Ile22_Ala43 (human, UniProt Q02223)
# T16 construct: limits given in the sample name
# T16 yeast-displayed fusion (looked up): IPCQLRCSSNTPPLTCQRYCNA
# Assay: yeast cell ELISA, sample BCMA_B15x Ile22_Ala43
# Procedure: as §1, §2
row,Binder,binding result
1,B1,no binding
2,B2,no binding
3,B3,no binding

# Biological target: T17, BCMA_B17x Ile22_Tyr40 (human, UniProt Q02223)
# T17 construct: limits given in the sample name
# T17 yeast-displayed fusion (looked up): IPCQLRCSSNTPPLTCQRY
# Assay: yeast cell ELISA, sample BCMA_B17x Ile22_Tyr40
# Procedure: as §1, §2
row,Binder,binding result
1,B1,no binding
2,B2,no binding
3,B3,no binding

# Biological target: T18, BCMA_B5x Gln38_Ala54 (human, UniProt Q02223)
# T18 construct: limits given in the sample name
# T18 yeast-displayed fusion (looked up): QRYCNASVTNSVKGTNA
# Assay: yeast cell ELISA, sample BCMA_B5x Gln38_Ala54
# Procedure: as §1, §2
row,Binder,binding result
1,B1,no binding
2,B2,no binding
3,B3,no binding

# Biological target: T19, BCMA_B21x Arg27_Tyr40 (human, UniProt Q02223)
# T19 construct: limits given in the sample name
# T19 yeast-displayed fusion (looked up): RCSSNTPPLTCQRY
# Assay: yeast cell ELISA, sample BCMA_B21x Arg27_Tyr40
# Procedure: as §1, §2
row,Binder,binding result
1,B1,no binding
2,B2,no binding
3,B3,no binding

# Biological target: T20, BCMA_B22x Arg27_Tyr40 (C37S) (human, UniProt Q02223)
# T20 construct: limits and substitution as printed in the sample name
# T20 yeast-displayed fusion (looked up): RCSSNTPPLTSQRY
# Assay: yeast cell ELISA, sample BCMA_B22x Arg27_Tyr40 (C37S)
# Procedure: as §1, §2
row,Binder,binding result
1,B1,no binding
2,B2,no binding
3,B3,no binding

# — patent publication US20250000976A1 (NATIONAL RESEARCH COUNCIL OF CANADA, published 2025)
